The source of these data is paper PMC9531584 (Nature structural & molecular biology, 2022).

To fix the notation:
B2: Torpedo californica muscle-type nicotinic acetylcholine receptor β subunit (natural protein, UniProt P02712 25-493, looked up)
chain: SVMEDTLLSVLFETYNPKVRPAQTVGDKVTVRVGLTLTNLLILNEKIEEMTTNVFLNLAWTDYRLQWDPAAYEGIKDLRIPSSDVWQPDIVLMNNNDGSFEITLHVNVLVQHTGAVSWQPSAIYRSSCTIKVMYFPFDWQNCTMVFKSYTYDTSEVTLQHALDAKGEREVKEIVINKDAFTENGQWSIEHKPSRKNWRSDDPSYEDVTFYLIIQRKPLFYIVYTIIPCILISILAILVFYLPPDAGEKMSLSISALLAVTVFLLLLADKVPETSLSVPIIIRYLMFIMILVAFSVILSVVVLNLHHRSPNTHTMPNWIRQIFIETLPPFLWIQRPVTTPSPDSKPTIISRANDEYFIRKPAGDFVCPVDNARVAVQPERLFSEMKWHLNGLTQPVTLPQDLKEAVEAIKYIAEQLESASEFDDLKKDWQYVAMVADRLFLYVFFVICSIGTFSIFLDASHNVPPDNPFA

Assay [1] deals with B2. The experiment in a line: cryo-EM structure.
The target of assay [2] is T1, Torpedo californica muscle-type nicotinic acetylcholine receptor δ subunit (Torpedo californica (Tetronarce …, UniProt P02718 22-522)).
T1 sequence (looked up): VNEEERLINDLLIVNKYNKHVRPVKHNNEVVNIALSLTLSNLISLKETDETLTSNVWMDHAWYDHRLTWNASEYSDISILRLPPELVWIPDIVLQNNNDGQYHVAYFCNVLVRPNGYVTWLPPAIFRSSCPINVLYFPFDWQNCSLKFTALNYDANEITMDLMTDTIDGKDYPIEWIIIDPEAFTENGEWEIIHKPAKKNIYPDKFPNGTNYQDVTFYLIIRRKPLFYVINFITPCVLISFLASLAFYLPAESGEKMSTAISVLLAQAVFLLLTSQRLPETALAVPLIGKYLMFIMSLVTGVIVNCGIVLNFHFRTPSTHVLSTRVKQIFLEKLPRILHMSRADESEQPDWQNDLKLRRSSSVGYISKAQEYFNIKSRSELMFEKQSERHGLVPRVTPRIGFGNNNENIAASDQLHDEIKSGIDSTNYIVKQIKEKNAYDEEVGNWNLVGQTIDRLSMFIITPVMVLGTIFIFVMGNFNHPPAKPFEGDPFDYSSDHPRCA
In words: cryo-EM structure.

B1: Torpedo californica muscle-type nicotinic acetylcholine receptor α subunit (natural protein, UniProt P02710 25-461, looked up)
chain: SEHETRLVANLLENYNKVIRPVEHHTHFVDITVGLQLIQLISVDEVNQIVETNVRLRQQWIDVRLRWNPADYGGIKKIRLPSDDVWLPDLVLYNNADGDFAIVHMTKLLLDYTGKIMWTPPAIFKSYCEIIVTHFPFDQQNCTMKLGIWTYDGTKVSISPESDRPDLSTFMESGEWVMKDYRGWKHWVYYTCCPDTPYLDITYHFIMQRIPLYFVVNVIIPCLLFSFLTGLVFYLPTDSGEKMTLSISVLLSLTVFLLVIVELIPSTSSAVPLIGKYMLFTMIFVISSIIITVVVINTHHRSPSTHTMPQWVRKIFIDTIPNVMFFSTMKRASKEKQENKIFADDIDISDISGKQVTGEVIFQTPLIKNPDVKSAIEGVKYIAEHMKSDEESSNAAEEWKYVAMVIDHILLCVFMLICIIGTVSVFAGRLIELSQEG
For B1, in assay [1], the binding result was “binds”.

For the molecule B2, the binding result in assay [2] is on record as “binds”.
